We go through one molecule from US10766952B2, “Methods for reducing migraine frequency in a subject in need thereof” (Beth Israel Deaconess Medical Center, Inc., priority 2017, dated 2020).

For assay [1], the system named is high-threshold (HT) trigeminovascular neurons. Put plainly: Activation and sensitization of central trigeminovascular neurons by cortical spreading depression (CSD), HT neurons. Conditions: for firing of HT neurons before CSD: 30 mg/kg IV, 4 hours after treatment; for firing of HT neurons after CSD: 6 hours after treatment; for expected CSD-induced activation of the HT neurons: 30 mg/kg IV 4 hours before CSD. The assay is classed as in vivo, rat. As to the method:
Cortical spreading depression (CSD) was induced mechanically by inserting a glass micropipette (tip diameter 25 μm) about 1 mm into the visual cortex for 10 sec. At a propagation rate of 3-5 mm/min, a single wave of CSD was expected to enter the neuronal receptive field within 1-2 min of cortical stimulation. For verification of CSD, cortical activity was recorded (electrocorticogram) with a glass micropipette (0.9% saline, ˜1 megohm, 7 um tip) placed just below the surface of the cerebral cortex (approximately 100 μm). The electrocorticogram electrode was positioned about 6 mm anterior to the visual cortex.
It was diluted in saline to a final dose of 30 mg/kg and administered intravenously (bolus injection, total volume 0.6-0.7 ml). A corresponding human IgG2 isotype control antibody (isotype-conAb) was also diluted in saline to a final dose of 30 mg/kg and administered intravenously (bolus injection, total volume 1.6-2.0 ml).
The experimental protocol included two parts. The first part was designed to compare CGRP-mAb vs isotype-conAb effects on spontaneous and induced activity of naïve trigeminovascular neurons, and the second part was designed to test CGRP-mAb vs isotype-conAb effects on the activation and sensitization of trigeminovascular neurons by CSD. Both parts included sampling of WDR and HT neurons in male and female rats. In the first part, the baseline neuronal profile was established by (a) mapping the dural, cutaneous and corneal receptive field; (b) measuring responses (mean spikes/sec) to mechanical stimulation of the dura (with a fixed force), skin (brush, pressure, pinch) and cornea (brush), and (c) measuring spontaneous firing rate (recorded over 30 min prior to treatment). Once the baseline was established, CGRP-mAb or isotype-conAb were administered and receptive fields were remapped, neuronal responses to stimulation of the dura, skin and cornea were re-examined, and the spontaneous activity rate was re-sampled at 1, 2, 3, and 4 hours post-treatment. The resulting values for each measure were then compared with the respective baseline values obtained before treatment. In the second part, CSD was induced 4 hours after administration of CGRP-mAb or isotype-conAb and 2 hours later (i.e., 6 hours after treatment) receptive field size, spontaneous activity rate, and response magnitude to stimulation of the dura, skin and cornea were measured again. The resulting post-CSD values for each measure were then compared with the respective pre-CSD values obtained at the 4-hour post-treatment time. This part was initiated only in cases in which the physiological condition of the rats (heart rate, blood pressure, respiration, end tidal CO2) and the neuronal isolation signal (signal-to-noise ratio ≥1:3) were stable at the 4-hour post-treatment time point.
To calculate the response magnitude to each stimulus, the mean firing frequency occurring before the onset of the first stimulus (30 min for spontaneous activity, 10 sec for mechanical stimulation of the dura, skin and cornea) was subtracted from the mean firing frequency that occurred throughout the duration of each stimulus. […] A neuron was considered activated when its mean firing rate after CSD exceeded its mean baseline activity by 2 standard deviations of that mean for a period >10 min, which translated to ≥33% increase in activity. […] Mean firing rates of respective values were compared using nonparametric statistics (Wilcoxon signed-ranks test). Two-tailed level of significance was set at 0.05.

The target in assay [2] is T1, human α-CGRP fragments and variants (Homo sapiens, UniProt P06881).
T1 construct: host or cells: synthetic peptides
The experiment in a line: Biacore affinity of G1 Fab to human α-CGRP fragments and variants on chip. The assay is classed as binding. The following applies: CGRP on chip: 38A (25-38A), 37° C. As to the method:
Biacore assay for affinity determination. […] All Biacore assays were conducted in HBS-EP running buffer (10 mM HEPES pH 7.4, 150 mM NaCl, 3 mM EDTA, 0.005% v/v polysorbate P20). CGRP surfaces were prepared by diluting the N-biotinylated CGRP to a concentration of less than 0.001 mg/mL into HBS-EP buffer and injecting it across the SA sensor chip using variable contact times. Low capacity surfaces, corresponding to capture levels <50 response units (RU) were used for high-resolution kinetic studies, whereas high capacity surfaces (about 800 RU of captured CGRP) were used for concentration studies, screening, and solution affinity determinations. […] Samples were typically injected for lminute at 100 μL/min and dissociation times of at least 10 minutes were allowed. After each binding cycle, surfaces were regenerated with 25 mM NaOH in 25% v/v ethanol, which was tolerated over hundreds of cycles. An entire titration series (typically generated in duplicate) was fit globally to a 1:1 Langmuir binding model using the BlAevaluation program. This returned a unique pair of association and dissociation kinetic rate constants (respectively, kon and koff) for each binding interaction, whose ratio gave the equilibrium dissociation constant (KD=koff/[…]).
On the technique in general: SPR reads the build-up and loss of mass on a sensor chip optically.

B1: fremanezumab (antibody)
heavy: EVQLVESGGGLVQPGGSLRLSCAASGFTFSNYWISWVRQAPGKGLEWVAEIRSESDASATHYAEAVKGRFTISRDNAKNSLYLQMNSLRAEDTAVYYCLAYFDYGLAIQNYWGQGTLVTVSSASTKGPSVFPLAPCSRSTSESTAALGCLVKDYFPEPVTVSWNSGALTSGVHTFPAVLQSSGLYSLSSVVTVPSSNFGTQTYTCNVDHKPSNTKVDKTVERKCCVECPPCPAPPVAGPSVFLFPPKPKDTLMISRTPEVTCVVVDVSHEDPEVQFNWYVDGVEVHNAKTKPREEQFNSTFRVVSVLTVVHQDWLNGKEYKCKVSNKGLPSSIEKTISKTKGQPREPQVYTLPPSREEMTKNQVSLTCLVKGFYPSDIAVEWESNGQPENNYKTTPPMLDSDGSFFLYSKLTVDKSRWQQGNVFSCSVMHEALHNHYTQKSLSLSPGK
light: EIVLTQSPATLSLSPGERATLSCKASKRVTTYVSWYQQKPGQAPRLLIYGASNRYLGIPARFSGSGSGTDFTLTISSLEPEDFAVYYCSQSYNYPYTFGQGTKLEIKRTVAAPSVFIFPPSDEQLKSGTASVVCLLNNFYPREAKVQWKVDNALQSGNSQESVTEQDSKDSTYSLSSTLTLSKADYEKHKVYACEVTHQGLSSPVTKSFNRGEC
notes: humanized anti-CGRP antagonist antibody, vectors ATCC PTA-6867 and PTA-6866
Regarding B1, in assay [1] (2/14 versus 13/13), the “difference in HT neurons activated by CSD versus isotype-conAb” value is listed as 86%. Besides, the “HT neuronal responses to dural indentation with VFH before CSD” value in assay [1] (female rats) is given as 10.5±1.6; in assay [1] (male rats), 1.8±0.6. Also, the entries for the “HT neurons with expansion of dural receptive fields after CSD” value in assay [1] (female rats) and in assay [1] (male rats) were 0/6 and 2/8, respectively. Moreover, the “HT neurons with expansion of facial receptive fields after CSD” value in assay [1] (female rats) is listed as 0/6; in assay [1] (male rats), 2/8. Moreover, the “firing of HT neurons before CSD” value in assay [1] (female rats, 6 HT neurons) is 3.3±1.7 spikes/sec; in assay [1] (male rats, 8 HT neurons), 1.2±0.6 spikes/sec. Besides, the “firing of HT neurons after CSD” value worked out at 5.0±3.4 spikes/sec in assay [1] (female rats, 6 HT neurons, 2 hours after CSD, p=0.45) and 1.9±1.5 spikes/sec in assay [1] (male rats, 8 HT neurons, 2 hours after CSD, p=0.29). Further, the “HT neuronal response to brushing the cornea after CSD” value in assay [1] (female rats, 6 HT neurons, p=0.51) is listed as “remained unchanged”; in assay [1] (male rats, 8 HT neurons, p=0.60), 9.4±1.8 spikes/sec. Further, the “expected CSD-induced activation of the HT neurons” value in assay [1] (female rats) and in assay [1] (male rats) was “prevented” in each case. Besides, the “HT neuronal responses to dural indentation with VFH after CSD” value in assay [1] (female rats, 2 hours after CSD, p=0.72) amounted to 8.1±6.4; in assay [1] (male rats, 2 hours after CSD, p=0.83), 1.9±1.5. Also, in assay [1] (male and female rats, 2 hours after CSD, p=0.35, 0.63, 0.78), the “HT neuronal responses to brush, pressure and pinch of the skin after CSD” value was “remained unchanged”. Besides, the “HT neurons activated by CSD (case-by-case analysis)” value in assay [1] (male and female rats, activated/tested) was 2/14. Moreover, the “HT neuronal response to brushing the cornea before CSD” value in assay [1] (male rats, 8 HT neurons) came out at 10.8±3.3 spikes/sec. In addition, in assay [2], the KD result is recorded as “No binding”.
